The results in this text go back to patent publication US20120148607A1.

In this assay the target is c-Met on human cells (HPAF, A549, MKN-45) (human) (UniProt P08581). Briefly: cell-based or functional assay.
Chain of c-Met on human cells (HPAF, A549, MKN-45) (human) (P08581 25-1390): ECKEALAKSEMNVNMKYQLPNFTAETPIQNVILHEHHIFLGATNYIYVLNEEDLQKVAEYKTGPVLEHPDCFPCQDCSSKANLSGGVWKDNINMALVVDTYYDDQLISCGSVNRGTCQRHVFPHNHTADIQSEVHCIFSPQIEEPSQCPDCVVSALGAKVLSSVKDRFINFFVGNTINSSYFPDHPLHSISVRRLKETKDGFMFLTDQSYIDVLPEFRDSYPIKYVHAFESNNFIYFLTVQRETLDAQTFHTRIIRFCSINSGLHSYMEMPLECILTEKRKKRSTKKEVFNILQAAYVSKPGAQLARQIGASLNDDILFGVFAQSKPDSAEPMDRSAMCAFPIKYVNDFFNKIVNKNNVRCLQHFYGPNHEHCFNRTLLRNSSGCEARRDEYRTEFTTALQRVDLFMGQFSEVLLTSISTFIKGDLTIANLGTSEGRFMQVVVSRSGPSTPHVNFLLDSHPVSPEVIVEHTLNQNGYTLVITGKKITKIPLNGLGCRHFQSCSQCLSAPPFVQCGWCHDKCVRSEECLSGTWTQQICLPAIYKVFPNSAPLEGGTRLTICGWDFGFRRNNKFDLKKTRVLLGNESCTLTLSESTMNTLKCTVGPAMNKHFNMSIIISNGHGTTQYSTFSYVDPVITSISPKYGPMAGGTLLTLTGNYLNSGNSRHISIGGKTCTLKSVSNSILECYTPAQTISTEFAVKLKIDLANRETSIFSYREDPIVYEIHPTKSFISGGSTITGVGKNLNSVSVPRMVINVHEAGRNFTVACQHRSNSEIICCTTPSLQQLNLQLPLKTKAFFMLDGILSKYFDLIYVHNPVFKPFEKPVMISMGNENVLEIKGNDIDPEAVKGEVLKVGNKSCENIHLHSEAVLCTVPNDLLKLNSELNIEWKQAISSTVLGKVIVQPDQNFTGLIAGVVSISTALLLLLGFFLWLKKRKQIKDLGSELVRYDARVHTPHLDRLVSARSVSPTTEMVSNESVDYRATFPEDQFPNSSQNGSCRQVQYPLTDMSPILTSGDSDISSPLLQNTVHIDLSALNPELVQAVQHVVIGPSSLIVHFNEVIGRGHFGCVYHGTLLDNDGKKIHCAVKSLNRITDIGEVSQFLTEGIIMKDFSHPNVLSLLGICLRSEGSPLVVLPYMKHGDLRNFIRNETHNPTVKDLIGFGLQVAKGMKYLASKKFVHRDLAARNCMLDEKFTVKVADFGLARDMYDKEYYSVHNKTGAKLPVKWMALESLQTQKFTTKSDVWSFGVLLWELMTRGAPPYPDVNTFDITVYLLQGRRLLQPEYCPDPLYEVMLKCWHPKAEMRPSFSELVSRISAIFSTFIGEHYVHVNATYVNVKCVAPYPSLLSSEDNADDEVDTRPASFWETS

Substance murine 5D5 antibody returned a down-regulation of total c-Met on the surface of MKN-45 cells (flow cytometry) of 50 to 60%.
